The series concerns the molecule itself. Description: non-reducing SDS/PAGE and Western blot of oligomers; 15 uM GAPR-1 with 37.5 uM heparin and 100 uM Zn2+ in NT-50 buffer (25 mM Tris, 50 mM NaCl, pH 7.4) at 37 C; aliquots at 0, 2, 7 and 20 h, non-reducing Laemmli buffer, boiled 5 min; blot with rabbit polyclonal anti-GAPR-1.

B1: Golgi-Associated plant Pathogenesis Related protein 1 (GAPR-1), wild type (natural protein)
chain: MGKSASKQFHNEVLKAHNEYRQKHGVPPLKLCKNLNREAQQYSEALASTRILKHSPESSRGQCGENLAWASYDQTGKEVADRWYSEIKNYNFQQPGFTSGTGHFTAMVWKNTKKMGVGKASASDGSSFVVARYFPAGNVVNEGFFEENVLPPKK
notes: GAPR-1 (GLIPR-2), UniProt Q9H4G4 as printed; No tag is named; purification was by cation exchange; also called GAPR-1 WT; GLIPR-2; source: E. coli XL-1 Blue, purified (cation exchange, SP Sepharose FF)
As to B1, the binding result was “binds”.

Values taken from article PMC6900432, “Zinc binding regulates amyloid-like aggregation of GAPR-1” (Bioscience Reports, 2019).
